The numbers were not newly measured in article PMC2846219, which cites them from elsewhere.

Data set [1] concerns the target PCNA (Homo sapiens) (UniProt P12004).
The target is the same in data set [2]. The source holds these as a separate data set.

Where two headings read alike, the source gives them in different places.

Sequence of UniProt P12004 (P12004 whole entry): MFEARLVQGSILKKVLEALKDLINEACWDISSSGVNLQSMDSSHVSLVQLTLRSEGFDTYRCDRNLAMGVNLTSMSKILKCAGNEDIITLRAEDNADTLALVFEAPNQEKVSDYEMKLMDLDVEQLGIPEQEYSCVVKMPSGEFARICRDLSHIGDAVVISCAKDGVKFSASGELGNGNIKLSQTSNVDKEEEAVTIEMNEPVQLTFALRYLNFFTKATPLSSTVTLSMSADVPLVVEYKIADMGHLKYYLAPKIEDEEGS

In the case of “DNA polymerase eta PIP peptide PIP peptide (from UniProt Q9Y253)”, in the data set with PCNA (Homo sapiens) [1], the Kd is 400 nM.
For the substance “DNA polymerase iota PIP peptide PIP peptide (from UniProt Q9UNA4)”, in the data set with PCNA (Homo sapiens) [2], the equilibrium dissociation constant (Kd) was 390 nM.

A word on the Kd: it is the equilibrium constant for the complex coming apart.
